From patent US7087420B1, “Microbial β-glucuronidase genes, gene products and uses thereof” (Cambia, priority 1997, dated 2006)

B1: E. coli GUS: E. coli β-glucuronidase encoded by gusA, 603 amino acids, used as comparison standard (protein, UniProt P05804 1-603, looked up)
Beta-glucuronidase: MLRPVETPTREIKKLDGLWAFSLDRENCGIDQRWWESALQESRAIAVPGSFNDQFADADIRNYAGNVWYQREVFIPKGWAGQRIVLRFDAVTHYGKVWVNNQEVMEHQGGYTPFEADVTPYVIAGKSVRITVCVNNELNWQTIPPGMVITDENGKKKQSYFHDFFNYAGIHRSVMLYTTPNTWVDDITVVTHVAQDCNHASVDWQVVANGDVSVELRDADQQVVATGQGTSGTLQVVNPHLWQPGEGYLYELCVTAKSQTECDIYPLRVGIRSVAVKGEQFLINHKPFYFTGFGRHEDADLRGKGFDNVLMVHDHALMDWIGANSYRTSHYPYAEEMLDWADEHGIVVIDETAAVGFNLSLGIGFEAGNKPKELYSEEAVNGETQQAHLQAIKELIARDKNHPSVVMWSIANEPDTRPQGAREYFAPLAEATRKLDPTRPITCVNVMFCDAHTDTISDLFDVLCLNRYYGWYVQSGDLETAEKVLEKELLAWQEKLHQPIIITEYGVDTLAGLHSMYTDMWSEEYQCAWLDMYHRVFDRVSAVVGEQVWNFADFATSQGILRVGGNKKGIFTRDRKPKSAAFLLQKRWTGMNFGEKPQQGGKQ
B2: D, E: E. coli GUS mutein, Cys 253 to Glu and Cys 262 to Ser (protein, UniProt P05804 1-603, looked up, variant C253E C262S)
Beta-glucuronidase: MLRPVETPTREIKKLDGLWAFSLDRENCGIDQRWWESALQESRAIAVPGSFNDQFADADIRNYAGNVWYQREVFIPKGWAGQRIVLRFDAVTHYGKVWVNNQEVMEHQGGYTPFEADVTPYVIAGKSVRITVCVNNELNWQTIPPGMVITDENGKKKQSYFHDFFNYAGIHRSVMLYTTPNTWVDDITVVTHVAQDCNHASVDWQVVANGDVSVELRDADQQVVATGQGTSGTLQVVNPHLWQPGEGYLYELEVTAKSQTESDIYPLRVGIRSVAVKGEQFLINHKPFYFTGFGRHEDADLRGKGFDNVLMVHDHALMDWIGANSYRTSHYPYAEEMLDWADEHGIVVIDETAAVGFNLSLGIGFEAGNKPKELYSEEAVNGETQQAHLQAIKELIARDKNHPSVVMWSIANEPDTRPQGAREYFAPLAEATRKLDPTRPITCVNVMFCDAHTDTISDLFDVLCLNRYYGWYVQSGDLETAEKVLEKELLAWQEKLHQPIIITEYGVDTLAGLHSMYTDMWSEEYQCAWLDMYHRVFDRVSAVVGEQVWNFADFATSQGILRVGGNKKGIFTRDRKPKSAAFLLQKRWTGMNFGEKPQQGGKQ

How the values were obtained:
Assay type in all cases: cell-based
[1] = tested on: KW1 cells; assay: Cellular localization: GUS activity in periplasm fraction, β-gal activity subtracted; settings: percent of total activity in periplasm fraction, expressed in E. coli, β-gal background subtracted
Text: Secretion index maybe calculated as the percentage of total GUS activity in periplasm or other extracellular environment less the percentage of total β-galactosidase activity found in the same extracellular environment.
Secretion of the enzyme may be verified by assaying for GUS activity in the extracellular environment. If the cells secreting GUS are gram-positive bacteria, yeasts, molds, plants, or other organisms with cell walls, activity may be assayed in the culture medium and in a cell extract, however, the protein may not be transported through the cell wall. Thus, if no or low activity of a secreted form of GUS is found in the culture medium, protoplasts made by osmotic shock or enzymatic digestion of the cell wall or other suitable procedure and the supernatant are assayed for GUS activity. […]
Cellular fractions (e.g., periplasm, spheroplast, supernatant, etc.) are prepared from KW1 cells transformed with pRAJa17.1 or a subfragment that contains the GUS gene and from E. coli cells that express β-glucuronidase. GUS activity and β-galactosidase (β-gal) activity is determined for each fraction. The percent of total activity in the periplasm fraction for GUS and β-gal (a non-secreted protein) are calculated; the amount of β-gal activity is considered background and thus is subtracted from the amount of β-glucuronidase activity. […]

[2] = tested on: E. coli; assay: GUS activity of transfectants with expression vectors, E. coli host; parameters: key: all tested transfectants exhibit GUS activity (indicated by a +); settings: No SP (signal peptide)
Description: (§1) A series of expression vector constructs of three different GUS genes, E. coli GUS, Staphylococcus GUS, and the AO version of codon-optimized Staphylococcus GUS, are prepared and tested for enzymatic activity in E. coli, yeast, and plants (rice, Millin variety). […] The E. coli vector contains a sequence encoding a pelB signal peptide, the yeast vectors contain a sequence encoding either an invertase or Mat alpha signal peptide, and the plant vectors contain a sequence encoding either a glycine-rich protein (GRP) or extensin signal peptide.
(§2) The GUS genes are cloned into each of these vectors using standard recombinant techniques of isolation of a GUS-gene containing fragment and ligation into an appropriately restricted vector. The recombinant vectors are then transfected into the appropriate host and transfectants are tested for GUS activity.
(§3) Moreover, similar results are obtained regardless of the presence or absence of a signal peptide.

[3] = tested on: yeast; assay: GUS activity of transfectants with expression vectors, yeast host; parameters: key: all tested transfectants exhibit GUS activity (indicated by a +)
Description: as §1, §2, §3

[4] = tested on: plants (rice, Millin variety); assay: GUS activity of transfectants with expression vectors, plant host; parameters: key: all tested transfectants exhibit GUS activity (indicated by a +)
Description: as §1, §2, §3

[5] = tested on: KW1; assay: X-GlcA staining of low-cysteine E. coli GUS muteins in KW1; settings: pBS backbone in KW1, staining with X-GlcA
Text: Single and multiple Cys muteins are constructed by site-directed mutagenesis techniques. Eight of the nine cysteine residues in E. coli GUS are changed to the corresponding residue found in human GUS based on alignment of the two protein sequences. One of the E. coli GUS cysteine residues, amino acid 463, aligns with a cysteine residue in human GUS and was not altered. The corresponding amino acids between E. coli GUS and human GUS are shown below.
The mutein GUS genes are cloned into a pBS backbone. The mutations are confirmed by diagnostic restriction site changes and by DNA sequence analysis. Recombinant vectors are transfected into KW1 and GUS activity assayed by staining with X-GlcA (5-bromo-4-chloro-3-indolyl-β-D-glucuronide).

Row | Molecule | GUS activity found in the periplasm [1] | GUS activity [2] | GUS activity ([3]; Invertase signal peptide) | GUS activity ([3]; Mat α signal peptide) | GUS activity ([3]; No SP) | GUS activity ([4]; Extensin signal peptide) | GUS activity ([4]; GRP signal peptide) | GUS activity ([4]; No SP) | GUS activity [5]
1 | B1 | less than 10% | + | + | + | + | + | + | + | –
2 | B2 | – | – | – | – | – | – | – | – | Yes
